# Reference: PMC7090010
# Assays:
# Settings in all cases: scale: % of the maximum spliced product formation
# [1] = molecular target: split mCherry-split intein C-terminal chimeric protein, IMPDH-1 intein split at site S2
# [2] = molecular target: split mCherry-split intein C-terminal chimeric protein, NrdJ-1 intein split at site S2
# [3] = molecular target: split mCherry-split intein C-terminal chimeric protein, SspGyrB intein split at site S2
# [4] = molecular target: split mCherry-split intein C-terminal chimeric protein, gp41-1 intein split at site S2
# [5] = molecular target: split mCherry-split intein C-terminal chimeric protein, gp41-8 intein split at site S2
substance,measurement,setting,value
"split mCherry-split intein N-terminal chimeric protein, IMPDH-1 intein split at site S2 (domain or fragment)","in vitro trans-splicing of mixed lysates (room temperature, 100 mM Tris-HCl pH 9.0, 100 mM NaCl, 2 mM DTT): spliced mCherry by Western blot, share of the maximum spliced product within 1 h",[1],> 75
"split mCherry-split intein N-terminal chimeric protein, NrdJ-1 intein split at site S2 (domain or fragment)","in vitro trans-splicing of mixed lysates (room temperature, 100 mM Tris-HCl pH 9.0, 100 mM NaCl, 2 mM DTT): spliced mCherry by Western blot, share of the maximum spliced product within 1 h",[2],> 75
"split mCherry-split intein N-terminal chimeric protein, SspGyrB intein split at site S2 (domain or fragment)","in vitro trans-splicing of mixed lysates (room temperature, 100 mM Tris-HCl pH 9.0, 100 mM NaCl, 2 mM DTT): spliced mCherry by Western blot, share of the maximum spliced product within 1 h",[3],> 75
"split mCherry-split intein N-terminal chimeric protein, gp41-1 intein split at site S2 (domain or fragment)","in vitro trans-splicing of mixed lysates (room temperature, 100 mM Tris-HCl pH 9.0, 100 mM NaCl, 2 mM DTT): spliced mCherry by Western blot, share of the maximum spliced product within 1 h",[4],> 75
"split mCherry-split intein N-terminal chimeric protein, gp41-8 intein split at site S2 (domain or fragment)","in vitro trans-splicing of mixed lysates (room temperature, 100 mM Tris-HCl pH 9.0, 100 mM NaCl, 2 mM DTT): spliced mCherry by Western blot, share of the maximum spliced product within 1 h",[5],> 75
